According to PMC10954123:

Legend:
[1] = target: His6x-MotE (mature form of MotE of Cereibacter sphaeroides) (Cereibacter sphaeroides); experiment: non-reducing SDS-PAGE; purified His6x-MotE, loading buffer without or with beta-mercaptoethanol, Coomassie blue stain; monomer to disulfide-linked dimer
[2] = target: MotE, endogenous in Cereibacter sphaeroides AM1 (Cereibacter sphaeroides (endogenous in AM1)); experiment: non-reducing SDS-PAGE; total cell extracts of AM1 prepared without or with beta-mercaptoethanol, immunodetection with anti-MotE; monomer to disulfide-linked dimer

stoichiometry N [1] | stoichiometry N [2] | Substance
2 | – | His6x-MotE (mature form of MotE of Cereibacter sphaeroides) (natural protein)
– | 2 | MotE, endogenous in Cereibacter sphaeroides AM1 (natural protein)
